Values quoted from earlier work, collected in patent publication US20200069786A1, “COMPOSITION AND PROCESS FOR PREPARING VACCINE” (TREOS BIO ZRT., priority 2018, published 2020).
Like-named read-outs stand apart in the source and are kept apart here.

Tested on: TSA
[1] = TSA expression rate in BLADDER cancer
[2] = TSA expression rate in Esophageal
[3] = TSA expression rate in HEAD and NECK
[4] = TSA expression rate in MELANOMA
[5] = TSA expression rate in PEDIATRIC
[6] = TSA expression rate in PROSTATE cancer
[7] = TSA expression rate in GASTRIC cancer
[8] = TSA expression rate in LEUKEMIAS
[9] = TSA expression rate in LUNG cancer

Molecule | TSA Expression Rate (ER) (BREAST) [%] | TSA Expression Rate (ER) (HCC) [%] | TSA Expression Rate (ER) (LUNG) [%] | Expression Rate (ER) % [1] [%] | Expression Rate (ER) % (TSA expression rate in CRC) [%] | Expression Rate (ER) % [2] [%] | Expression Rate (ER) % [3] [%] | Expression Rate (ER) % (TSA expression rate in Kidney) [%] | Expression Rate (ER) % [4] [%] | Expression Rate (ER) % [5] [%] | Expression Rate (ER) % [6] [%] | Expression Rate (ER) % [7] [%] | Expression Rate (ER) % [8] [%] | Expression Rate (ER) % [9] [%] | Expression Rate (ER) % (TSA expression rate in LYMPHOMAS) [%] | Expression Rate (ER) % (TSA expression rate in Cervical cancer) [%]
MAGE-A6 (protein, UniProt P43360 1-314, looked up) Melanoma-associated antigen 6: MPLEQRSQHCKPEEGLEARGEALGLVGAQAPATEEQEAASSSSTLVEVTLGEVPAAESPDPPQSPQGASSLPTTMNYPLWSQSYEDSSNQEEEGPSTFPDLESEFQAALSRKVAKLVHFLLLKYRAREPVTKAEMLGSVVGNWQYFFPVIFSKASDSLQLVFGIELMEVDPIGHVYIFATCLGLSYDGLLGDNQIMPKTGFLIIILAIIAKEGDCAPEEKIWEELSVLEVFEGREDSIFGDPKKLLTQYFVQENYLEYRQVPGSDPACYEFLWGPRALIETSYVKVLHHMVKISGGPRISYPLLHEWALREGEE | 15 | 36 | 51 | 25 | 22 | 68 | 58 | 0 | 65 | 80 | 23 | – | – | – | – | –
TSPY1 (protein, UniProt Q01534 1-308, looked up) Testis-specific Y-encoded …: MRPEGSLTYRVPERLRQGFCGVGRAAQALVCASAKEGTAFRMEAVQEGAAGVESEQAALGEEAVLLLDDIMAEVEVVAEEEGLVERREEAQRAQQAVPGPGPMTPESAPEELLAVQVELEPVNAQARKAFSRQREKMERRRKPHLDRRGAVIQSVPGFWANVIANHPQMSALITDEDEDMLSYMVSLEVGEEKHPVHLCKIMLFFRSNPYFQNKVITKEYLVNITEYRASHSTPIEWYPDYEVEAYRRRHHNSSLNFFNWFSDHNFAGSNKIAEILCKDLWRNPLQYYKRMKPPEEGTETSGDSQLLS | – | 35 | – | 0 | – | – | – | 5 | – | – | – | 0 | 12 | 0 | 0 | –
CAGE1 (protein, UniProt Q8TC20 1-777, looked up) Cancer-associated gene 1 …: MNKDYQKFWSSPSDPVHFEVDTSHEKVESMSESDTMNVSNLSQGVMLSHSPICMETTGTTCDLPQNEIKNFERENEYESTLCEDAYGTLDNLLNDNNIENYSTNALIQPVDTISISSLRQFETVCKFHWVEAFDDEMTEKPEFQSQVYNYAKDNNIKQDSFKEENPMETSVSANTDQLGNEYFRQPPPRSPPLIHCSGEMLKFTEKSLAKSIAKESALNPSQPPSFLCKTAVPSKEIQNYGEIPEMSVSYEKEVTAEGVERPEIVSTWSSAGISWRSEACRENCEMPDWEQSAESLQPVQEDMALNEVLQKLKHTNRKQEVRIQELQCSNLYLEKRVKELQMKITKQQVFIDVINKLKENVEELIEDKYKIILEKNDTKKTLQNLEEVLANTQKHLQESRNDKEMLQLQFKKIKANYVCLQERYMTEMQQKNKSVSQYLEMDKTLSKKEEEVERLQQLKKELEKATASALDLLKREKEAQEQEFLSLQEEFQKLEKENLEERQKLKSRLEKLLTQVRNLQFMSENERTKNIKLQQQINEVKNENAKLKQQVARSEEQNYVPKFETAQLKDQLEEVLKSDITKDTKTTHSNLLPDCSPCEERLNPADIKRASQLASKMHSLLALMVGLLTCQDIINSDAEHFKESEKVSDIMLQKLKSLHLKKKTLDKEVIDCDSDEAKSIRDVPTLLGAKLDKYHSLNEELDFLVTSYEEIIECADQRLAISHSQIAHLEERNKHLEDLIRKPREKARKPRSKSLENHPKSMTMMPALFKENRNDLD | – | 39 | – | – | 74 | – | – | – | – | – | – | 77 | – | 14 | – | 98
NY-BR-1 (protein, UniProt Q9BXX3 1-1397, looked up) Ankyrin repeat …: MEEISAAAVKVVPGPERPSPFSQLVYTSNDSYIVHSGDLRKIHKAASRGQVRKLEKMTKRKKTINLNIQDAQKRTALHWACVNGHEEVVTFLVDRKCQLDVLDGEHRTPLMKALQCHQEACANILIDSGADINLVDVYGNTALHYAVYSEILSVVAKLLSHGAVIEVHNKASLTPLLLSITKRSEQIVEFLLIKNANANAVNKYKCTALMLAVCHGSSEIVGMLLQQNVDVFAADICGVTAEHYAVTCGFHHIHEQIMEYIRKLSKNHQNTNPEGTSAGTPDEAAPLAERTPDTAESLVEKTPDEAAPLVERTPDTAESLVEKTPDEAASLVEGTSDKIQCLEKATSGKFEQSAEETPREITSPAKETSEKFTWPAKGRPRKIAWEKKEDTPREIMSPAKETSEKFTWAAKGRPRKIAWEKKETPVKTGCVARVTSNKTKVLEKGRSKMIACPTKESSTKASANDQRFPSESKQEEDEEYSCDSRSLFESSAKIQVCIPESIYQKVMEINREVEEPPKKPSAFKPAIEMQNSVPNKAFELKNEQTLRADPMFPPESKQKDYEENSWDSESLCETVSQKDVCLPKATHQKEIDKINGKLEESPNKDGLLKATCGMKVSIPTKALELKDMQTFKAEPPGKPSAFEPATEMQKSVPNKALELKNEQTLRADEILPSESKQKDYEENSWDTESLCETVSQKDVCLPKAAHQKEIDKINGKLEGSPVKDGLLKANCGMKVSIPTKALELMDMQTFKAEPPEKPSAFEPAIEMQKSVPNKALELKNEQTLRADEILPSESKQKDYEESSWDSESLCETVSQKDVCLPKATHQKEIDKINGKLEESPDNDGFLKAPCRMKVSIPTKALELMDMQTFKAEPPEKPSAFEPAIEMQKSVPNKALELKNEQTLRADQMFPSESKQKKVEENSWDSESLRETVSQKDVCVPKATHQKEMDKISGKLEDSTSLSKILDTVHSCERARELQKDHCEQRTGKMEQMKKKFCVLKKKLSEAKEIKSQLENQKVKWEQELCSVRLTLNQEEEKRRNADILNEKIREELGRIEEQHRKELEVKQQLEQALRIQDIELKSVESNLNQVSHTHENENYLLHENCMLKKEIAMLKLEIATLKHQYQEKENKYFEDIKILKEKNAELQMTLKLKEESLTKRASQYSGQLKVLIAENTMLTSKLKEKQDKEILEAEIESHHPRLASAVQDHDQIVTSRKSQEPAFHIAGDACLQRKMNVDVSSTIYNNEVLHQPLSEAQRKSKSLKINLNYAGDALRENTLVSEHAQRDQRETQCQMKEAEHMYQNEQDNVNKHTEQQESLDQKLFQLQSKNMWLQQQLVHAHKKADNKSKITIDIHFLERKMQHHLLKEKNEEIFNYNNHLKNRIYQYEKEKAETENS | 47 | – | – | – | – | – | 2 | – | – | – | – | – | – | – | – | –
MAGE-A12 (protein, UniProt P43365 1-314, looked up) Melanoma-associated antigen 12: MPLEQRSQHCKPEEGLEAQGEALGLVGAQAPATEEQETASSSSTLVEVTLREVPAAESPSPPHSPQGASTLPTTINYTLWSQSDEGSSNEEQEGPSTFPDLETSFQVALSRKMAELVHFLLLKYRAREPFTKAEMLGSVIRNFQDFFPVIFSKASEYLQLVFGIEVVEVVRIGHLYILVTCLGLSYDGLLGDNQIVPKTGLLIIVLAIIAKEGDCAPEEKIWEELSVLEASDGREDSVFAHPRKLLTQDLVQENYLEYRQVPGSDPACYEFLWGPRALVETSYVKVLHHLLKISGGPHISYPPLHEWAFREGEE | 12 | 36 | 31 | 29 | 6 | 26 | 34 | 4 | 49 | 41 | 5 | – | 21 | – | – | –
